Reference: publication PMC8379338, “Structures of heat shock factor trimers bound to DNA” (iScience, 2021)

Key:
[1] = target: HSF1-DBD (Homo sapiens, UniProt Q00613 15-120); test: X-ray crystallography; 2.0 A; Co-crystallization at 20 C, hanging drop; protein stock in 20 mM Tris pH 8.0, 150 mM NaCl, 1 mM DTT, 0.2 mM EDTA; DNA annealed in TE; protein:DNA 2:1.5 (2-site) or 3:1.2 (3-site); HSF2 3-site reservoir 0.1 M HEPES pH 7.5, 25% PEG; conditions: protein: recombinant; tags: His6 (N-terminal, between MBP and DBD; MBP removed in vivo by TEV protease); chain copies: 2; blunt; self-complementary, 2 copies of the strand
[2] = target: the molecule itself; test: crystal structure; DBD co-crystallised with a sticky-ended three-site HSE DNA duplex (21 bp for HSF2; 23 bp and 24 bp for HSF1); protein:DNA molar ratio 3:1.2; hanging drop, 20°C; three DBD copies on one DNA duplex
[3] = target: T1, HSF1-DBD trimer (Homo sapiens, UniProt Q00613 15-120); test: X-ray crystallography; 2.4 A; Co-crystallization at 20 C, hanging drop; protein stock in 20 mM Tris pH 8.0, 150 mM NaCl, 1 mM DTT, 0.2 mM EDTA; DNA annealed in TE; protein:DNA 2:1.5 (2-site) or 3:1.2 (3-site); HSF2 3-site reservoir 0.1 M HEPES pH 7.5, 25% PEG; conditions: protein: recombinant; tags: His6 (N-terminal, between MBP and DBD; MBP removed in vivo by TEV protease); chain copies: 3; 22 bp, 5' overhang 1 nt on both strands
[4] = target: HSF2-DBD trimer (Homo sapiens, UniProt Q03933 7-112); test: X-ray crystallography; 1.75 A; Co-crystallization at 20 C, hanging drop; protein stock in 20 mM Tris pH 8.0, 150 mM NaCl, 1 mM DTT, 0.2 mM EDTA; DNA annealed in TE; protein:DNA 2:1.5 (2-site) or 3:1.2 (3-site); HSF2 3-site reservoir 0.1 M HEPES pH 7.5, 25% PEG; conditions: protein: recombinant; tags: His6 (N-terminal, between MBP and DBD; MBP removed in vivo by TEV protease); chain copies: 3; 20 bp, 5' overhang 1 nt on both strands
[5] = target: T1, HSF1-DBD trimer; test: X-ray crystallography; 2.36 A; Co-crystallization at 20 C, hanging drop; protein stock in 20 mM Tris pH 8.0, 150 mM NaCl, 1 mM DTT, 0.2 mM EDTA; DNA annealed in TE; protein:DNA 2:1.5 (2-site) or 3:1.2 (3-site); HSF2 3-site reservoir 0.1 M HEPES pH 7.5, 25% PEG; conditions: protein: recombinant; tags: His6 (N-terminal, between MBP and DBD; MBP removed in vivo by TEV protease); chain copies: 3; 23 bp, 5' overhang 1 nt on both strands
[6] = target: HSF2-DBD (Homo sapiens, UniProt Q03933 7-112); test: X-ray crystallography; 1.7 A; Co-crystallization at 20 C, hanging drop; protein stock in 20 mM Tris pH 8.0, 150 mM NaCl, 1 mM DTT, 0.2 mM EDTA; DNA annealed in TE; protein:DNA 2:1.5 (2-site) or 3:1.2 (3-site); HSF2 3-site reservoir 0.1 M HEPES pH 7.5, 25% PEG; conditions: protein: recombinant; tags: His6 (N-terminal, between MBP and DBD; MBP removed in vivo by TEV protease); chain copies: 2; blunt; self-complementary, 2 copies of the strand

B1: 14 bp HtH HSE (dsDNA)
DNA 1: GCCGAATATTCGGC
DNA 2: GCCGAATATTCGGC
[1]
  binding result: binds

B2: DNA-binding domain (DBD) of human heat shock factor 2 (HSF2), residues 7-112 (domain or fragment, UniProt Q03933 7-112, looked up)
chain: VPAFLSKLWTLVEETHTNEFITWSQNGQSFLVLDEQRFAKEILPKYFKHNNMASFVRQLNMYGFRKVVHIDSGIVKQERDGPVEFQHPYFKQGQDDLLENIKRKVS
notes: The His6 tag lies between the TEV site and the DBD; MBP was removed in vivo by co-expressed TEV protease; In the crystals, two or three copies sit on one DNA duplex; also called HSF2-DBD; DBD I; source: E. coli Rosetta2(DE3) carrying pRK603, purified (Ni-NTA, cation exchange, SEC); not shown: MBP, N-terminal, cleaved
[2]
  binding result: binds

B3: 23 bp 3-site HSE (dsDNA)
DNA 1: TGGCGTTCTAGAATATTCGCGGA
DNA 2: ATCCGCGAATATTCTAGAACGCC
[3]
  binding result: binds

B4: DNA-binding domain (DBD) of human heat shock factor 1 (HSF1), residues 15-120 (domain or fragment, UniProt Q00613 15-120, looked up)
chain: VPAFLTKLWTLVSDPDTDALICWSPSGNSFHVFDQGQFAKEVLPKYFKHNNMASFVRQLNMYGFRKVVHIEQGGLVKPERDDTEFQHPCFLRGQEQLLENIKRKVT
notes: The His6 tag lies between the TEV site and the DBD; MBP was removed in vivo by co-expressed TEV protease; In the crystals, two or three copies sit on one DNA duplex; also called HSF1-DBD; DBD I; source: E. coli Rosetta2(DE3) carrying pRK603, purified (Ni-NTA, cation exchange, SEC); not shown: MBP, N-terminal, cleaved
[2]
  binding result: binds

B5: 21 bp 3-site HSE (dsDNA)
DNA 1: TGCGTTCTAGAATATTCGCGG
DNA 2: ACCGCGAATATTCTAGAACGC
[4]
  binding result: binds

B6: 24 bp 3-site HSE (dsDNA)
DNA 1: TGTGCGTTCTAGAATATTCGCGAG
DNA 2: ACTCGCGAATATTCTAGAACGCAC
[5]
  binding result: binds

B7: 12 bp HtH HSE (dsDNA)
DNA 1: GGGAATATTCCC
DNA 2: GGGAATATTCCC
[6]
  binding result: binds
